Measurements taken from patent US20220306729A1 (published 2022).

Experiments:
[1] = target: ZIKV envelope domain III (ZEDIII), polyhistidine-AviTag, made in HEK-293-6E cells; assay: ELISA
[2] = target: Human FcRn; assay: SPR

B1: Z037 (antibody, V domains shown)
VH: QVQLQESGPGLVKPSETLSLTCSVSGYFISSGHYWGWIRQSPGKGLEWIASIYQSGSKFQTGNTYYNPSLESRVTISMDTSKNQFSLKLSSVTAADTAVYFCARDARSRSWDRTGFFGPWGQGILVTVSS
VL: EIVLTQSPGTLSLSPGERATLSCRASQSLSSSFLAWYQQKPGQSPRLLIYGTSSRDTGIPDRFSGSGSGTDFTLTISRLEPEDSAVYYCQQYGSSWGTFGQGTKLEIK
- EC50 [1]: > 0.4 µg/mL

B2: Z012 (antibody, V domains shown)
VH: QVQLVQSGAEVKKSGASVKVSCKASGYSFTTNYIHWVRQAPGQGPEWMGIINPRGGSTTYAQKFQGRVLMTSDTSTSTVYMELSSLRSEDRAVYYCARGKNHQTTVAVLSWYYGMDVWGQGTTVTVSS
VL: DIQMTQSPSSVSASVGDRVTITCRASQGISSWLAWYQQKPGKAPKLLISAASSLQSGVPSRFSGSGSGTDFTLTISNLQPEDFATYFCQQANSFPYTFGQGTKLEIK
- EC50 [1]: 0.2 µg/mL

B3: Z010 (MEX105_88) (antibody, V domains shown)
VH: EVQLLESGGGLVQPGGSLRLSCAASGFTFSNYAMAWVRQAPGKGLEWVSLIYSGDDSTYYADFVKGRFTISRHNSKNTLSLQMNSLRAEDTAIYYCVKDRGTGWSSIVHWGQGTLVTVSS
VL: DIQMTQSPSTLSASVGDRVTITCRASQTISNWLAWYQQKPGKAPKLLIYQASSLESGVPSRFSGSGSGTEFTLTISSLQPDDFATYYCQQYSTYWTFGQGTKVEIK
- EC50 [1]: > 0.4 µg/mL

B4: GRLR/LS (antibody)
heavy: EVQLLESGGGLVQPGGSLRLTCATSGFTFRDYAMSWVRQAPGKGLEWVSSYSGIDDSTYYADSVKGRFTISRDNSKSTLSLHMNSLRAEDSALYFCAKDRGPRGVGELFDSWGQGTLVTVSSASTKGPSVFPLAPSSKSTSGGTAALGCLVKDYFPEPVTVSWNSGALTSGVHTFPAVLQSSGLYSLSSVVTVPSSSLGTQTYICNVNHKPSNTKVDKRVEPKSCDKTHTCPPCPAPELLRGPSVFLFPPKPKDTLMISRTPEVTCVVVDVSHEDPEVKFNWYVDGVEVHNAKTKPREEQYNSTYRVVSVLTVLHQDWLNGKEYKCKVSNKARPAPIEKTISKAKGQPREPQVYTLPPSREEMTKNQVSLTCLVKGFYPSDIAVEWESNGQPENNYKTTPPVLDSDGSFFLYSKLTVDKSRWQQGNVFSCSVLHEALHSHYTQKSLSLSPG
light: DIQMTQSPSTLSASVGDRVTITCRASQSISKWLAWYQQKPGKAPKLLIYTTSTLKSGVPSRFSGSGSGTEFTLTISSLQPDDFATYYCQHFYSVPWTFGQGTKVEIKRTVAAPSVFIFPPSDEQLKSGTASVVCLLNNFYPREAKVQWKVDNALQSGNSQESVTEQDSKDSTYSLSSTLTLSKADYEKHKVYACEVTHQGLSSPVTKSFNRGEC
- Kd [2]: 5.2 nM
